Measured values reported in US10765761B2, “Nucleic acid condensing peptide, nucleic acid condensing peptide set, nucleic acid delivery carrier, nucleic acid delivery method, cell production method, cell detection method and kit” (KABUSHIKI KAISHA TOSHIBA, priority 2016, dated 2020).

How the values were obtained:
[1] = Average particle diameter and Zeta potential of liposome (zetasizer), Example 3; format: physicochemical
Method: (§1) COATSOME/SS-20 (Nippon Oil & Fats), DOPE, cholesterol and DMG-PEG were dissolved into ethanol at a molar ratio of 5:3:1:0.3, to obtain a lipid solution. Two sets of lipid solutions (0.5 ml) put into tubes were prepared, and 0.5 ml of peptide-nucleic-acid solutions (8) (mHP-1) and (16) (mHP-3) of Example 1 were dropped thereto while stirring each lipid solution, thereby forming liposomes. 9 ml of 10 mM-HEPES (pH: 5.3) was added to each of the liposome solutions to make a total amount of 10 ml (each liposome solution will be referred to as “Complex” hereinafter). Further, on an assumption that the liposome is taken into an organism, and liposome solutions (which will be referred to as “HEPES replacement”) in which ethanol, which is the solvent of Complex is substituted by HEPES were produced. The HEPES replacements were produced by condensing each solution of Complex to 1.5 ml with an ultrafiltration film for 300 kDa, adding 8.5 ml of 100 mM-HEPES (pH: 7.4) to each, performing ultrafiltration, thereafter substituting the solvent with 10 mM-HEPES (pH: 7.4), and finally condensing to 0.5 ml. Further, the HEPES replacements were filtered for sterilization with a filter with a pore diameter of 0.45 μm to prepare solutions (which will be referred to as “0.45 μm” hereinafter).
(§2) The “peptide-nucleic-acid solution”, “HEPES substituent” and “0.45 micrometer”, each of which contain the protamine, mHP-1 or mHP-3 prepared as above were examined in terms of average particle diameter of liposome, Zeta potential and amount of encapsulation of plasmid. The average particle diameter and Zeta potential were measured using a zetasizer. The amount of encapsulation of plasmid was measured using a Quant-iT PicoGreen (registered trademark) dsDNA assay kit.

plasmid vector (pDNA) [2] = test: Gel retardation assay: condensability and dissociation, Example 2; format: binding; conditions: 0.8% agarose gel, samples of any concentration (FIG. 6); for dissociation: PGA (+) sample; for condensability: PGA (-) sample
Method: The condensability of the nucleic acid by the peptide of the embodiment and the dissociation of the peptide and the nucleic acid were estimated by a gel retardation assay.
As samples for the condensability evaluation, 18 sets of 8.0 μL of 10 mM-HEPES (pH: 5.3) were prepared and 1.0 μL of the respective peptide-nucleic-acid solutions of Example 1 and […] were added thereto and mixed, thus preparing mixtures. As samples for the dissociation evaluation, 1.0 μL of peptide-nucleic-acid solutions and 1.0 μL of poly-glutamic-acid (PGA) solutions were added to 8.0 μL of 10 mM-HEPES solutions (pH: 5.3) and mixed, thereby preparing mixtures. After they were let stand still for 15 minutes at room temperature, 1.0 μL of an electrophoretic buffer (50%-sucrose solution) was added to each mixture, and they were mixed well, to carry out electrophoresis with a 0.8%-agarose gel. After the electrophoresis, the nucleic acid dyed with ethidium bromide was visualized by UV irradiation, and the nucleic acids condensed by the peptide and the nucleic acid dissociating with the peptide and moving into a gel were detected.
FIG. 6 is a photograph showing the agarose gel subjected to UV irradiation. Of two lanes indicated by the numbers of the respective samples, the left lane indicates the results of a PGA (−) sample (sample for the condensability evaluation) and the right lane for those of a PGA (+) sample (sample for the dissociation evaluation). When an integrated band with a large molecular weight, which strongly shines is observed in the left lane, it was evaluated as a high condensability. […] The mHP-1 and mHP-3 were excellent both in condensability and dissociation in the samples of any concentration. In particular, they were excellent in the peptide-nucleic-acid solutions (8) and (16).

plasmid vector (pDNA) [3] = test: Average particle diameter and Zeta potential of peptide-nucleic-acid complexes (zetasizer), Example 1; format: physicochemical; conditions: for characteristics of condensing the nucleic acid: judged from particle diameter and its dispersion (Table 2, FIGS. 4 and 5)
Method: The condensability of the nucleic acid by the peptide of the embodiment and the potential of the peptide-nucleic-acid complex were evaluated.
The peptides were each dissolved in 10 mM of HEPES (pH: 5.3) to prepare several peptide solutions having different peptide concentrations.
For the protamine, three peptide solutions were prepared to have peptide concentrations of: (1) 2.1 mg/ml, (2) 2.4 mg/ml and (3) 2.7 mg/ml. For the mHP-4, four peptide solutions were prepared to have peptide concentrations of: (4) 1.8 mg/ml, (5) 2.1 mg/ml, (6) 2.4 mg/ml and (7) 2.7 mg/ml. For the mHP-1, three peptide solutions were prepared to have peptide concentrations of: (8) 2.1 mg/ml, (9) 2.4 mg/ml and (10) 2.7 mg/ml. For the mHP-2, five peptide solutions were prepared to have peptide concentrations of: (11) 1.2 mg/ml, (12) 1.5 mg/ml, (13) 2.1 mg/ml, (14) 2.4 mg/ml and (15) 2.7 mg/ml. For the mHP-3, three peptide solutions were prepared to have peptide concentrations of: (16) 2.1 mg/ml, (17) 2.4 mg/ml and (18) 2.7 mg/ml. Further, plasmid vector (pDNA) was diluted with purified water to prepare a nucleic acid solution having a pDNA concentration of 3.0 mg/ml.
18 sets of nucleic acid solutions (90 μL) put in tubes were prepared and the peptide solutions (1) to (18) (90 μL) described above were dropped respectively therein and mixed while stirring each, to condense the nucleic acids. Thus, the peptide-nucleic-acid complexes were obtained. Then, the mixtures were each diluted with purified water to 25-fold to produce peptide-nucleic-acid solutions. Further, as references, samples containing only each respective peptide were also prepared without adding the nucleic acid solutions thereto.
The average particle diameter and Zeta potential of each of the peptide-nucleic-acid complexes were investigated using the peptide-nucleic-acid solutions. The average particle diameter and Zeta potential were measured using a zetasizer.

plasmid = test: Amount of encapsulation of plasmid in liposome (Quant-iT PicoGreen dsDNA assay kit), Example 3; format: physicochemical
Method: as §1, §2

[4] = pDNA/peptide 1/0.7 (peptide conc. 2.1 mg/mL)
[5] = pDNA/peptide 1/0.8 (peptide conc. 2.4 mg/mL)
[6] = pDNA/peptide 1/0.9 (peptide conc. 2.7 mg/mL)
[7] = peptide solely, no nucleic acid (Reference)

With “RQRQRGGRRRRRR (Nucleic acid condensing peptide) [mHP-3]” the “Average particle diameter (zAve)” value ([1]; Peptide-nucleic acid solution) was 113.4 nm, the Zeta potential ([1]; Peptide-nucleic acid solution) was −43.90 mV and the “Average particle diameter (zAve)” value ([1]; liposome, 0.45 μm filtered) was 218.2 nm. For the same sequence, the Zeta potential ([1]; liposome, 0.45 μm filtered) was −2.95 mV, the “Average particle diameter (zAve)” value ([1]; liposome, HEPES substitution) was 240.5 nm and the Zeta potential ([1]; liposome, HEPES substitution) was −3.39 mV. The dissociation (plasmid vector (pDNA) [2]) was “excellent”, the condensability (plasmid vector (pDNA) [2]) was “excellent” and the “characteristics of condensing the nucleic acid” value (plasmid vector (pDNA) [3]) was “excellent”. For the same sequence, the “Average particle diameter (zAve)” value (plasmid vector (pDNA) [3]; [4]) was 135.8 nm, the Zeta potential (plasmid vector (pDNA) [3]; [4]) was −28.1 mV and the “Average particle diameter (zAve)” value (plasmid vector (pDNA) [3]; [5]) was 134.9 nm. The Zeta potential (plasmid vector (pDNA) [3]; [5]) was −25.9 mV, the “Average particle diameter (zAve)” value (plasmid vector (pDNA) [3]; [6]) was 148.2 nm and the Zeta potential (plasmid vector (pDNA) [3]; [6]) was −28.3 mV. For the same sequence, the “Average particle diameter (zAve)” value (plasmid vector (pDNA) [3]; [7]) was 322.9 nm, the Zeta potential (plasmid vector (pDNA) [3]; [7]) was 17.0 mV and the Plasmid inclusion amount (plasmid; 0.45 μm filtered) was 84.14 µg/mL. For the same sequence, the Plasmid inclusion amount (plasmid; HEPES substitution) was 96.94 µg/mL.

For “RQRQRYYRQRQRGGRRRRRR (Nucleic acid condensing peptide) [mHP-1]”, the “Average particle diameter (zAve)” value ([1]; Peptide-nucleic acid solution) was 121.4 nm, the Zeta potential ([1]; Peptide-nucleic acid solution) was −44.50 mV and the “Average particle diameter (zAve)” value ([1]; liposome, 0.45 μm filtered) was 222.0 nm. For the same sequence, the Zeta potential ([1]; liposome, 0.45 μm filtered) was −5.26 mV, the “Average particle diameter (zAve)” value ([1]; liposome, HEPES substitution) was 254.1 nm and the Zeta potential ([1]; liposome, HEPES substitution) was −11.30 mV. The dissociation (plasmid vector (pDNA) [2]) was “excellent”, the condensability (plasmid vector (pDNA) [2]) was “excellent” and the “characteristics of condensing the nucleic acid” value (plasmid vector (pDNA) [3]) was “excellent”. For the same sequence, the “Average particle diameter (zAve)” value (plasmid vector (pDNA) [3]; [4]) was 124.0 nm, the Zeta potential (plasmid vector (pDNA) [3]; [4]) was −28.2 mV and the “Average particle diameter (zAve)” value (plasmid vector (pDNA) [3]; [5]) was 133.4 nm. The Zeta potential (plasmid vector (pDNA) [3]; [5]) was −26.7 mV, the “Average particle diameter (zAve)” value (plasmid vector (pDNA) [3]; [6]) was 158.0 nm and the Zeta potential (plasmid vector (pDNA) [3]; [6]) was −25.5 mV. For the same sequence, the “Average particle diameter (zAve)” value (plasmid vector (pDNA) [3]; [7]) was 444.0 nm, the Zeta potential (plasmid vector (pDNA) [3]; [7]) was 37.2 mV and the Plasmid inclusion amount (plasmid; 0.45 μm filtered) was 37.30 µg/mL. It also gave a Plasmid inclusion amount (plasmid; HEPES substitution) of 42.12 µg/mL.
